Assay results reported in patent US20040171549A1.

Target: integrin alpha v beta 3 present at the surface of the endothelial cells (CPAE) (bovine (calf pulmonary artery endothelial cells)) (UniProt P80746)
Experiment: cell-based or functional assay

Sequence of UniProt P80746 (P80746 31-1048): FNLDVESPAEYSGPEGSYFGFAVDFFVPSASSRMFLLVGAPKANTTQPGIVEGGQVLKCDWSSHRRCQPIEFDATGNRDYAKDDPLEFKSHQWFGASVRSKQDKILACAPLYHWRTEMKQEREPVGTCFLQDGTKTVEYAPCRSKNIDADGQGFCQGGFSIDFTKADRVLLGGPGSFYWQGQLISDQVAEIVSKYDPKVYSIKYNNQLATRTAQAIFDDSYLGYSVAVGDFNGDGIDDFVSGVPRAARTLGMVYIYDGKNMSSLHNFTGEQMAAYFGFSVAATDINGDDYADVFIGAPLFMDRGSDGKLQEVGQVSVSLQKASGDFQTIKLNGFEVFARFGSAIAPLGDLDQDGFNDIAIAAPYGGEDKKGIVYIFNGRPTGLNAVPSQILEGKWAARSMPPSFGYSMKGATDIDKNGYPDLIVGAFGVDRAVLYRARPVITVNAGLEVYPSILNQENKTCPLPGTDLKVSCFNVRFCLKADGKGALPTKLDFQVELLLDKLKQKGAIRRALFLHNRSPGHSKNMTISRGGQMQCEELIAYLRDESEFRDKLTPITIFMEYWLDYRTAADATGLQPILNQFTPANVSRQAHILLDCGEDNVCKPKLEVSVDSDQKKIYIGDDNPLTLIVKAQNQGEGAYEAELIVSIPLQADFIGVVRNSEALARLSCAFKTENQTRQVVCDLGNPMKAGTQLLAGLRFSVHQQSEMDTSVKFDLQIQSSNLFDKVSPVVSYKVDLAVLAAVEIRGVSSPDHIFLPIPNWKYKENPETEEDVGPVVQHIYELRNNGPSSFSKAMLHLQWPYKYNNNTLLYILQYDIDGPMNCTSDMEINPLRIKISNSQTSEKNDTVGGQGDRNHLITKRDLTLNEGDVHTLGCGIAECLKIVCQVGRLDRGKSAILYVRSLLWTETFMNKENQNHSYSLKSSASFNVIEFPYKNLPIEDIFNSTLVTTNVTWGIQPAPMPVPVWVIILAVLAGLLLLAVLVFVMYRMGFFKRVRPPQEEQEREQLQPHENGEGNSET

inhibition of the adhesion of the cells on fibrinogen: 50%
inhibition of the adhesion of the cells on vitronectin: 49%
Substance: 1.4-kDa fragment of AMEP constituted of 12 amino acids with the sequence RGDC (peptide)
